The source of these data is US20230257722.

Assay in all cases: cell_activity
The subject of series [1] is TL4412 SMARCA4 right TALE-FokI (synthetic). As to conditions: A549, mRNA, pair with pFL.
Series [2] concerns TL4412 SMARCA4 right TALE-SEQ1 nuclease (synthetic). As to conditions: A549, mRNA, pair with p1L; Table 10 59.7% cleavage.
Series [3] deals with TL4412 SMARCA4 right TALE-SEQ2 nuclease (synthetic). The note with it: A549, mRNA, pair with p2L; Table 10 67.6% cleavage.
The test system of series [4] is TL4412 SMARCA4 right TALE-SEQ4 nuclease (synthetic). The note with it: A549, mRNA, pair with p4L; Table 10 94.5% cleavage.
For series [5], the system named is TL4412 SMARCA4 right TALE-SEQ5 nuclease (synthetic). As to conditions: A549, mRNA, pair with p5L; no cleavage, binding not measured.
Series [6] concerns TL4412 SMARCA4 right TALE-SEQ6 nuclease (synthetic). The note with it: A549, mRNA, pair with p6L; Table 10 75.2% cleavage.
Series [7] relates to TL4412 SMARCA4 right TALE-SEQ7 nuclease (synthetic). The note with it: A549, mRNA, pair with p7L; no cleavage, binding not measured.
The subject of series [8] is TL4412 SMARCA4 right TALE-SEQ8 nuclease (synthetic). The note with it: A549, mRNA, pair with p8L; Table 10 70.4% cleavage.
Series [9] deals with TL4409 SMARCA4 left TALE-FokI (synthetic). As to conditions: A549, mRNA, pair with pFR.
Series [10] relates to TL4409 SMARCA4 left TALE-SEQ1 nuclease (synthetic). The note with it: A549, mRNA, pair with p1R; Table 10 59.7% cleavage.
In series [11] the test system is TL4409 SMARCA4 left TALE-SEQ2 nuclease (synthetic). As to conditions: A549, mRNA, pair with p2R; Table 10 67.6% cleavage.
The test system of series [12] is TL4409 SMARCA4 left TALE-SEQ4 nuclease (synthetic). As to conditions: A549, mRNA, pair with p4R; Table 10 94.5% cleavage.
Series [13] concerns TL4409 SMARCA4 left TALE-SEQ5 nuclease (synthetic). As to conditions: A549, mRNA, pair with p5R; no cleavage, binding not measured.
For series [14], the system named is TL4409 SMARCA4 left TALE-SEQ6 nuclease (synthetic). As to conditions: A549, mRNA, pair with p6R; Table 10 75.2% cleavage.
The test system of series [15] is TL4409 SMARCA4 left TALE-SEQ7 nuclease (synthetic). As to conditions: A549, mRNA, pair with p7R; no cleavage, binding not measured.
The test system of series [16] is TL4409 SMARCA4 left TALE-SEQ8 nuclease (synthetic). As to conditions: A549, mRNA, pair with p8R; Table 10 70.4% cleavage.

Consider “ACTGAGAGAGTGGACAAGC (double strand) [SMARCA4 right half-site (top strand)]”, for which the activity worked out at 74 % indels in [1]; 42 % indels in series [2]; 8 % indels in series [3]; 87 % indels in series [4]; 0 % indels in series [5]; 1 % indels in series [6]. The activity turned out to be 0 % indels in [7] and 38 % indels in series [8].

On to “GGCGTGTCCCAGGCCCTTGC (double strand) [SMARCA4 left half-site]”, for which the activity was 74 % indels in series [9]; 42 % indels in [10]; 8 % indels in series [11]; 87 % indels in [12]; 0 % indels in series [13]; 1 % indels in series [14]. The activity was 0 % indels in series [15] and 38 % indels in [16].
